Measured values published in PMC11217422, “Proton-pumping photoreceptor controls expression of ABC transporter by regulating transcription factor through light” (Communications Biology, 2024).

Target: T1, G. violaceus transcriptional regulator, with His tag (Gloeobacter violaceus PCC 7421)
T1 construct: GvTcR, helix-turn-helix type transcriptional regulator of Gloeobacter violaceus PCC 7421, NCBI WP_011141437.1; gene amplified from genomic DNA with the printed primers (forward from the start codon, reverse adds His6 before the stop codon); also called GvTcR; HTH transcription factor protein; source: E. coli UT5600, purified (Ni-NTA); also in cell lysate; also co-expressed with GR from one pKA001 …
Test: ITC; MicroCal ITC200, room temperature, sonication buffer (150 mM NaCl, 50 mM Tris-HCl, pH 7.0) with 0.02% DDM; which protein was titrated is not told
Conditions: both partners purified

B1: GR R69A/K141A double mutant (natural protein)
chain: MLMTVFSSAPELALLGSTFAQVDPSNLSVSDSLTYGQFNLVYNAFSFAIAAMFASALFFFSAQALVGQAYRLALLVSAIVVSIAGYHYFRIFNSWDAAYVLENGVYSLTSEKFNDAYRYVDWLLTVPLLLVETVAVLTLPAAEARPLLIKLTVASVLMIATGYPGEISDDITTRIIWGTVSTIPFAYILYVLWVELSRSLVRQPAAVQTLVRNMRWLLLLSWGVYPIAYLLPMLGVSGTSAAVGVQVGYTIADVLAKPVFGLLVFAIALVKTKADQESSEPHAAIGAAANKSGGSLIS
modifications: retinal chromophore bound by a Schiff base (residue not given)
Kd: 6.2 ± 3.15 mM
